This passage reports MFI results from PMC10189049.

The assay has as its target TCR Vβ3.1 on CH7C17 Jurkat cells. The experiment in a line: fluorescence microscopy of labelled protein on cells.

On to “Staphylococcal Enterotoxin B (from UniProt P01552 28-266) (natural protein)”, for which the MFI at 5 minutes turned out to be 427.
